The values that follow come from paper PMC2120552.

The target of the assay is synthetic beta1 peptide, identical in sequence to the complete cytoplasmic domain of the beta1 integrin subunit. Kind of assay: pull-down.

Several values for one entry are separate records, joined by “and”; a condition that tells them apart may be missing. Equal values may be shown once.

As for “alpha-actinin (from UniProt P05094 1-893) (natural protein)”, the percent of the protein in the lysate bound was 10% and > 10%.
